In JP2016161390A (dated 2016):
One block for each binder: values may come before it.

Assays:
ヒトFRβ(FRβ発現B300−19細胞) [1] = target: T1, ヒトFRβ(FRβ発現B300−19細胞) (human, UniProt P14207 17-230); experiment: Flow cytometry on B300-19 cells expressing FRβ, antibody at 1 μg/ml, APC anti-rat detection
T1 construct: whole, on cells; also called 葉酸リセプターβ

ヒトFRα(FRα発現KB細胞) = target: T2, ヒトFRα(FRα発現KB細胞) (human, UniProt P15328 25-234); experiment: Hybridoma screening on cells expressing FRβ and on KB cells expressing FRα
T2 construct: whole, on cells
T2 sequence (P15328 25-234): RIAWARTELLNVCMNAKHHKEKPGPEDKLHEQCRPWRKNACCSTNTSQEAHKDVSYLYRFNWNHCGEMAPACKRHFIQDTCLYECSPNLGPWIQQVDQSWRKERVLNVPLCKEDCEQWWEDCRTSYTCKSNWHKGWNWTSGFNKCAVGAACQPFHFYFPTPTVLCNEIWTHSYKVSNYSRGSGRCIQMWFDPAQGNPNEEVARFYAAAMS

ヒトFRβ(FRβ発現B300−19細胞) [2] = target: T1, ヒトFRβ(FRβ発現B300−19細胞); experiment: Flow cytometry on B300-19 cells expressing FRβ, in the presence of F(ab')2 No.5, APC-streptavidin detection

T1 sequence (P14207 17-230): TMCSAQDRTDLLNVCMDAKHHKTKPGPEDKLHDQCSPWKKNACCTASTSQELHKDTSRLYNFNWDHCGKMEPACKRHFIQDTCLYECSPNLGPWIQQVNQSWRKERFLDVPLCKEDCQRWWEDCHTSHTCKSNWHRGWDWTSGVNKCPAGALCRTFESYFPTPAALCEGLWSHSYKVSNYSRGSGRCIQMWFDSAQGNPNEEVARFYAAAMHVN

binding result (ヒトFRβ(FRβ発現B300−19細胞) [1]): binds | binding result (ヒトFRα(FRα発現KB細胞)): binds
B1: 抗ヒトFRラットモノクローナル抗体(クローン名:No.5) (antibody, V domains shown)
VH: QVQLKESGPGLVQPSQTLSLTCTVSGFSLTSNSVSWVRQPPGKGLEWMGAIWSGGSTDYNSALKSRLSISKDTSKSQVFLKMNSLQTEDTAIYFCTRYYGYTYFAYWGQGVMVTVSS
VL: DIQMTQSPASLSASLEEIVTITCQASQDIGNWLAWYQQKPGKSPQLLIYDAIRLADGVPSRFSGSRSGTQYSLKISRLQVEDIGDYYCQQGQSNPRTFGGGTKLELK
notes: Rat monoclonal antibody purified from hybridoma supernatant; the constant regions are not; also called 抗体No.5

binding result (ヒトFRβ(FRβ発現B300−19細胞) [2]): binds
B2: ビオチン化No.2抗体 (antibody, V domains shown)
VH: QVQLQQSGAELAKPGSSVKISCKASGYTFTTYYINWIKQTTGQGLDYIGYINTRSGGTNYNEKFKGKATLTVDKSSSTAFMQLSSLTPDDSAVYYCAREGIIRGAEVMDAWGQGASVTVSS
VL: DIQMTQTPSSMPASLGERVTISCRASQGISNYLNRYQQKPDGTIKLLIYYTSNLQSGVPSRFSGSGSGTDYSLTISSLEPEDFAMYYCQQYDSSPPTFGGGTKLELK
modifications: biotinylated with Sulfo-NHS-LC-Biotin; sites not stated
notes: also called 検出抗体; ビオチン化抗FRβ抗体

binding result (ヒトFRβ(FRβ発現B300−19細胞) [1]): binds
B3: 抗ヒトFRβラットモノクローナル抗体(クローン名:No.2) (antibody, V domains shown)
VH: B2 VH
VL: B2 VL
notes: Rat monoclonal antibody purified from hybridoma supernatant; the constant regions are not; also called 抗体No.2
